Publication PMC11560701
Like-named read-outs stand apart in the source and are kept apart here.

Legend:
[1] = target: H2A.Z/H3K9cme3 mono-nucleosome (208-bp 601 Widom DNA) (mouse | Xenopus laevis) (UniProt P0C0S6); assay: AUC
[2] = target: H2A.Z/H3K9cme3 mono-nucleosome (208-bp 601 Widom DNA) (mouse | Xenopus laevis) (UniProt P0C0S6); assay: AUC; remark: listed apart in the source

Sequence of human HP1α (heterochromatin protein 1 alpha), full length (P45973 whole entry): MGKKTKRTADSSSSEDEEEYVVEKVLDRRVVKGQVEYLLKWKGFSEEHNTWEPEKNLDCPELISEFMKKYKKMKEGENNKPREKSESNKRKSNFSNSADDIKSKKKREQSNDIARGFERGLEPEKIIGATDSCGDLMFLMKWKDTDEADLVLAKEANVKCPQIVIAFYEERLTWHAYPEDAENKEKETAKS

Kd [1]: 1 µM
stoichiometry N (HP1α dimers per nucleosome) [1]: 2
Kd [2]: 850 µM
Substance: human HP1α (heterochromatin protein 1 alpha), full length (from UniProt P45973 1-191) (natural protein)
